{"source": "patent US7858298", "about": "(PROGENICS PHARMACEUTICALS, dated 2010)", "binders": {"B1": {"name": "human CCR5 expressed on the cell surface (receptor)", "chain": "not shown", "notes": "whole, on cells; also called C-C CKR-5; CKR-5"}}, "key": {"[1]": {"molecular_target": "T1, complex formed between sCD4 and biotinylated HIV-1LAI gp120 (HIV-1 LAI (BRU); human, UniProt P03377 33-516; P01730 26-396)", "T1 construct": "also called b-LAI:sCD4", "assay": "flow cytometry on human CCR5-bearing murine L1.2 cells (data not shown)"}, "[2]": {"molecular_target": "T2, recombinant soluble human CD4 (human, UniProt P01730 26-396)", "T2 construct": "also called sCD4; soluble CD4", "assay": "flow cytometry on human CCR5-bearing murine L1.2 cells (data not shown)"}}, "data": [{"binder": "B1", "values": [{"measurement": "binding result", "setting": "[1]", "value": "no binding"}, {"measurement": "binding result", "setting": "[2]", "value": "no binding"}]}]}
